The results in this text go back to the DeepSol protein solubility set.

The data set in a line: soluble on expression in E. coli; label from the status in PepcDB or PDB records.
With “MGSSHHHHHHGGTGENLYFQGGSGSFRYTNHLVATLKHRLFLEAAHRQLVRQTFTGVCNGIEVTCTAYGSVVGIRMLDRAVWEPHYQVAADNKSEAAAATPTAPAAASPSRPSSSSSSSSTASGKTGIDLVKLSASIQAATWQAIQKVRAAKEETHSRSLRRNPQVLAEARLRDWYEQDANTLHPRPFDGLKNLEATEWMQAVRFGVPQPARYRRPNAAPKDLGEGGDGAHTDQKPRETITVLRDEDCDPANIPIGSVHPLFAPGLLQLEVDPNVATNGGSRVDEFFVLSEQRKEMRRDEEAFWERVELIRRSQLATIPKGGVKRGYADMADTVQDSIEEKVQLRFTQ”, the “soluble on expression in E. coli” value is given as “soluble”.
To “MVHIRLSFITFSLILFLVVDMVKIPKSHPRYWSLLYREKIIEGMEKGITAKAGLIAHGRGEAFDYLIGEKTIPPAETAMRAAIAKLLLAKHPVISVNGNVAALVPKETVELAKVLNAKLEINLFYRTEERVKKIAEVLYENGADEVLGINPTKRIPGLESERGKVDENGIWKADVILVPLEDGDRTEALCRMGKFVITVDLNPLSRSARMADITIVDNIVRAYPRMIELAKEMKSLPKEDLEKIVATYDNSKVLSEVLIHIRDRLTKLAEGGIWKKEKLEHHHHHH” belongs “not soluble”.
To “MIIVHLCGGLGNQMFQYAAGLAAAHRIGSEVKFDTHWFDATCLHQGLELRRVFGLELPEPSSKDLRKVLGACVHPAVRRLLAGHFLHGLRPKSLVIQPHFHYWTGFEHLPDNVYLEGYWQSERYFSNIADIIRQQFRFVEPLDPHNAALMDEMQSGVSVSLHIRRGDYFNNPQMRRVHGVDLSEYYPAAVATMIEKTNAERFYVFSDDPQWVLEHLKLPVSYTVVDHNRGAASYRDMQLMSACRHHIIANSTFSWWGAWLNPRPDKVVIAPRHWFNVDVFDTRDLYCPGWIVLLEHHHHHH” belongs “not soluble”; to “MPAGTRCVTQGEAEKNGMIPTGIFCDYQNGQEMYCYSEGKPDLVISDVWAYNTTPGVYSELRALVYNHGHGYAGKFSVAFFIDGSYVGEVEVNGLGANENTVARISYPHPCEGETDTFAAQVDYHNEVDEENENDNYHESPRIFQCSGGEMPNLEVVEAYIDYQDFCRALNYRNSSIVVVVANTGEQASPQTGGWIYIDGNSRGGFDIPSLQPGEETTISMNFPYMCEGSSDEIRVVVDSRNYVVESNENDNEYTFITDCIPMPSGTADLVVSYLETHVVEELLAGGLSYPLKSEINYTVENLGEDYSCNAEVGLFIDGVFQGQQYLPPLAPGDSITRTFIAKYDWERCSGISDTLTLKADVNNDVAESNENNNERSVTLYCIEYPLIKPDLTVEDVWIEGEGASNLDIVFTVKNIGLAASRATNAYVGVNYNPAGSTPIPPLNAGESVELRISGFTAQWQENTIEVCADSGNLVDEIPNEMNNCLTKTITIEDVGCYDGVRNRDEVGVDCGGYYCVPAALLRLKGDCSIRMTMAAGFQLEHHHHHH”, “not soluble”.
As to “MSEVDKAHLAAINKDVQANDTLFGKIIRKEIPAKIIFEDDEALAFHDVSPQAPIHFLVIPKRRIDMLENAVDSDAALIGKLMVTASKVAKQLGMANGYRVVVNNGKDGAQSVFHLHLHVLGGRQLQWPPG”, the “soluble on expression in E. coli” value was “not soluble”.
Regarding “MAHHHHHHMDSDLSAEIARIEAELAQDAELRQQQQQLAPQQPPASLFGFGQTAPVQPQQQQQQQLFQTQPPQPQQQPSNPFNVNASPFMPTPQQPDYSQQQQQQQQPIGSAGQAAAQASAPTPIIHSFSKDTDSRSIFIGNLPRGTDGTPTTTPEELVQFFADCGNILNCTVLKDRATGEPKGTAYIEFADYTAMGKAIDTKNNANFKGSTIIVCVSTSPLFSLAGFFG”, the “soluble on expression in E. coli” value is recorded as “soluble”.
Regarding “MSLGDERPDVLLTGLLFYDLVLTGLGKPPTPGEEIWTEGMGVSPGGIANLAVAASRFGLRTSLATVFGDDHYGAYCRGVLAGQEGIDLSLSRTADGWHTPVTVSLAYGHDRALVTHGQDPPYSQDALMGDPPEARTALVHIEAEPHAWLAKAAANGTRIYADVGWDPTQQWSRDLLDQLSLCHAFLPNEAEAMAYTRTDSAMAALGTLTDLVPVAVVTRGGDGAVAVDQTTGEYAEVPALDIDVLDPTGAGDVFGASFVAASLGGWPLAERLRFAVLAAGLSVQRHGGALAAPGWYGVHRWWHSLEDPGLRRAYGFLADRIPADPGPPVRHAPVTPPDATRREGHHHHHH”, the “soluble on expression in E. coli” value is on record as “soluble”.
To “AHHHHHHGSKKITISSLLLLLLISTNLNLAYDSQESGIKNIIILIGDGMGMSHVQITKLVYGHLNMEEFPIIGFELTESLSGEVTDSAAAGTAIATGVKTYNRMISVTNITGKVTNLTTLLEIAQVLGKSTGLVTTTRITHATPAVFASHVPDRDMEEEIARQLIAHRVNVLLGGGRKKFDENTLKMAKEQGYNIVFTKEELEKAEGEFILGLFADSHIPYVLDRKPEDVGLLEMTKKAISILEKNPNGFFLMIEGGRIDHAAHENDIASVVAETKEFDDVVGYVLEYAKKRGDTLVIVLADHETGGLGLGLTYGDAINEDVIRNINASVSKIASEIRATNDIKRVIKKYTGFELTEDEINYIEEAINLADEYALQNAIADIINKRVGVGFVSHKHTGAPVSLLAYGPGAENFAGFLHHVDTAKLIAKLMLFGKKDIPVTILGISGVKGDITGDFKVDEQDAYVTLMMLLGERVDTELERKVDMNNNGIIELGDVLLILQES” belongs “soluble”.
For “MDYKEIVFDVDNTLIDTEYAILHSLQDTIKQINRKIIPIKELSFALGITGEDALRYLKIEDITIALSMWDRNMEKYKNTVLVFKEIKEMLTEIIKLNIGIGIVTSKTHEEFRNDFLSFDIAPYFNTVVCSNDTLEHKPKAVPLLKYMELTKCQNNELLYIGDSIYDMQCAYRANVDFGLVKWGSGDRVSTVISFTTPLDLIRQLSVSSN”, the “soluble on expression in E. coli” value is given as “not soluble”.
Consider “MSGRLIGKVALVSGGARGMGASHVRAMVAEGAKVVFGDILDEEGKAVAAELADAARYVHLDVTQPAQWTAAVDTAVTAFGGLHVLVNNAGILNIGTIEDYALTEWQRILDVNLTGVFLGIRAVVKPMKEAGRGSIINISSIEGLAGTVACHGYTATKFAVRGLTKSTALELGPSGIRVNSIHPGLVKTPMTDWVPEDIFQTALGRAAEPVEVSNLVVYLASDESSYSTGAEFVVDGGTVAGLAHNDFGAVEVSSQPEWVT”, for which the “soluble on expression in E. coli” value is recorded as “not soluble”.
For “KARLIYNPTSGQEIMKKNVAEVLDILEGFGYETSAFQTTPTKNSARDEATRAAQAGFDLIVAAGGDGTINEVVNGIAPLKRRPKMAIIPTGTTNDFARALKIPRGNPIEATKLIGKNQIVKMDIGQAQED” the value was “not soluble”.
In the case of “MGSDKIHHHHHHMYEHQTYEAILVRMLARVPETIDKREGSLIYDALAPGAAELAQAYAELVVNNNLSFADTASGEFLTRRAAEFGIKRKVATKAWRRGGFLDSNNALLNIPLGSRYSIGGLNYTAIEQISTGAYVLECETAGTAGNQQFGDLLPIAYVNSLARAELTEVLVPGEDEETDEALLSRYYETVNEPAFGGNMADYRQKVNAINGVGGTKVFPTWAGGGTVKCTIIASDWAKPSPELVNEVQSTMDPEENQGMGLGQAPIGHAVTIAGVDKVTVDVETTLTLAPGVTPGQVQSDVEAILDAYLLEQRKTWAAQTQIIIRMAQIDARMLTVQGVEDVTGTKLNGTEANFLLDEEEIPILGTVIINE”, the “soluble on expression in E. coli” value is “not soluble”.
To “MQNISIAENNRTGIPVQSLSYEQAAKGPTGSIMTEGYAKAIANYAYVWGWPMVNMHNRREAFKQVPYQGYIGGAMPAAPINHLTMLSDYVSPNMRDVAHPNQDVVYGFGMLSLDKEPVVIQVPDFGDRFWTVMAEDQRTDSFAQLSSIYDSKPGFYMIVSPEWDGEIPEGINKVFRSSTDLAVVIPRVFMDDTAEDREAIQSVVNQLGAYPLSEFTGIMKITNWKSLPNIPEAKKTKSEKTWVNPNMFFSAEQLGKVLEEVSPLPGEEAMYAQFKELLLQAEENKELQKILNDVANEAEMNIVTPLFRLENVGKEINNYWTRPQDNGRFGTDYLTRLAVAKSNIFTNDVTETSYLYQYKDENGTRINGNHNYTLTFKKGELPPVDGFWSLTMYNSNHFFVPNDIKRYSIGTKNKGMKYNKDGSLTIYIQNEKPSEDKIGNWLPAPKDDIAMTIRAYGPKEEMLSGTWQPPAVVKIKLEHHHHHH” belongs “soluble”.
For “MGHHHHHHSHMGRCYNNIVIDASIEAVWQQIGNFHDMSWAKGVITSLVKVGPASGTEVGAKRILNDAIHETLVSLDSSNYTFTYSIDDGPDAIAKSAVDNYLGMVNLSESSTGVLVEWSSSFTSDNEKAVTEFCDP” the value was “not soluble”; for “MSLYTYIDLFAGPGGLCTGFKNAGFKPLIAVEMSDNTVKTYARNHEAEVYSLQELLENKGRLEEILNINTDNTCLIHGDIRLVDNDIIVEILQKKFKTNSVDVVAGGPPCESFSLAGKRIDGDERDDLFKNMLRIASISNSKFIFFENVPGLLTKKSNNIKVFDVIVEEFDNYGYNLASTDKNIIKCLAADYGVPQNRERVFLIGINKMYGENPYIYPEKTHGEGRKFEYISVSDALRYLPELNSGEGADIQQITYNFEEDFRKGKISEAVYNYLKFIAGKEGYIPPHIKESIDDGLIEIHKAVKHREKMINRMSYIKQGEGMKKAAERLINEGKEDIVRAYFPNKLYAARNRRLKANEPSFTVTSHCLDEMVHPYNNRGLTPREAARLQSFPDWYVFEGEYVKFHSDPQQDKYEQCGDAIPVLLVKALAEQLKIALNIVSERTSINEGHHHHHH”, “not soluble”; for “MIKKAFCMQVYPDQHAEYQRRHEKLWPEMRQMLKEHGAIKYQIFLNPETSTLFGYLEIEDEARWEQIALTPINQKWWNYMEDIMETNPDCSPMTAELKKVFEL”, “not soluble”.
For “MPPPTNQFKHDNIPLQTQGCEINVLCVRNPRARRIKLSVDERGVRLILPPCADLDAGTRFLLEQRAWIETQMARYASGTAATIPLRRGETTALPLRDQQLPLHWHESRYTRLELDAHGLQFYITTHTNDNTLRHTLREFYEVQARVDISDWLRKYLPGLPRPPTRVRLKPMSSQWGSLATAGHMALDLALVLGRPSAFEYVVVHELCHLIQANHSPAFWREVECRFPLWREERDYFHLKGRILKAQLRRLLQTELEHHHHHH” the value was “not soluble”.
